Measurements reported in the supplement of paper PMC9732359.
± gives the uncertainty stated by the source.

Test: protein stability index of a GFP-peptide fusion (yeast GPS) (PSI 1-4); higher = more stable; sorted into four equal gates, so the index is relative within each strain
Outline: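 For each peptide, the protein stability index sums the read frequency in every gate after multiplying it by the gate number. Read frequencies came from plasmids that were PCR-amplified from each gate and Illumina-sequenced, with reads assigned to strains by barcodes. The gates were four equal bins of GFP/Cherry fluorescence ratio applied to mid-log yeast in leucine-free medium carrying a pooled library of tiled 17-residue yeast protein peptides fused downstream of GFP on a Cherry-expressing plasmid.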

Sequence | protein stability index (doa10∆) | protein stability index (pdr5∆) | protein stability index (san1∆) | protein stability index (ubr1∆)
PLDTIETELPTLSLPDS [SMC1] | 3 ± 0.12 | 2.92 ± 0.12 | 2.92 ± 0.083 | 3.09 ± 0.089
SQQNIVPNSSDQAELPN [SNF2] | 2.73 ± 0.06 | 2.67 ± 0.079 | 3.04 ± 0.057 | 3.01 ± 0.069
EEKSNEVKTPKIPLFTF [SIR4] | 2.82 ± 0.061 | 2.94 ± 0.065 | 2.57 ± 0.048 | 2.79 ± 0.047
SSTKPPGSVNSAAKYKD [NUT1] | 2.68 ± 0.064 | 2.64 ± 0.061 | 2.53 ± 0.1 | 2.93 ± 0.065
TLSFNFSQKANKTKAVD [YOR098C/NUP1] | 2.03 ± 0.085 | 1.55 ± 0.059 | 1.84 ± 0.1 | 1.71 ± 0.057
PGVLPVGIDTHTATDIY [SNF2] | 2.96 ± 0.066 | 3.04 ± 0.064 | 2.77 ± 0.045 | 2.69 ± 0.04
VVEGVTFVVEQLIKQSI [SNU114] | 2.52 ± 0.076 | 2.6 ± 0.095 | 3.44 ± 0.098 | 2.85 ± 0.067
AQDFINAYASFLQRQGK [RPS19A] | 2.91 ± 0.061 | 3.07 ± 0.064 | 3.01 ± 0.06 | 3 ± 0.046
DTEMKMKSLLTELSNKE [YIL149C/MLP2] | 3.31 ± 0.065 | 3.44 ± 0.058 | 3.21 ± 0.045 | 3.35 ± 0.049
KPKMLPIPSKPTLFDLA [SRP68] | 2.48 ± 0.071 | 2.54 ± 0.072 | 2.31 ± 0.099 | 2.53 ± 0.06
TNGGLFGSGTQNNNTLG [YGR119C/NUP57] | 3.25 ± 0.11 | 2.91 ± 0.091 | 3.02 ± 0.069 | 3.08 ± 0.069
FVHSVKKFLRVRIFTKI [SRB4] | 2.21 ± 0.082 | 2.07 ± 0.072 | 1.22 ± 0.12 | 2.07 ± 0.059
RQSKSSGKSNTSNDASN [ITC1] | 3.09 ± 0.095 | 3.28 ± 0.08 | 3.34 ± 0.065 | 3.22 ± 0.076
ETSSFGSMFSGDNTSDV [RRI1] | 3.48 ± 0.11 | 3.08 ± 0.13 | 3.25 ± 0.063 | 2.66 ± 0.15
KKEKLDSGEVDADGDID [DPB4] | 3.05 ± 0.15 | 3.4 ± 0.17 | 3.29 ± 0.12 | 3.36 ± 0.11
TQIANAGASPMVNTQQP [PRE4] | 2.94 ± 0.11 | 3.07 ± 0.09 | 2.82 ± 0.075 | 2.82 ± 0.18
KVAQLRQTGPAKINEVY [NSL1] | 2.97 ± 0.14 | 3.04 ± 0.15 | 2.84 ± 0.1 | 3.58 ± 0.11
KIATRGVMLWKEFDETI [FAS1] | 3.02 ± 0.22 | 2.94 ± 0.22 | – | 2.94 ± 0.15
SPHYNSQKQTLIKKPLT [SSN3] | 2.52 ± 0.064 | 2.87 ± 0.056 | 2.46 ± 0.058 | 2.65 ± 0.036
FMLRKQDPKTLVALLSR [SSN2] | 1.6 ± 0.055 | 1.84 ± 0.041 | 1.85 ± 0.079 | 2.09 ± 0.043
ATDVEARAVQDNGESAF [RPL13A] | 3.16 ± 0.11 | 2.99 ± 0.088 | 1.56 ± 0.094 | 2.85 ± 0.094
VRNYKPLINRLKHYNGY [SWI1] | 1.79 ± 0.048 | 2.2 ± 0.045 | 2.57 ± 0.06 | 2.54 ± 0.039
DSSAHFKGALTIKILPE [YMR129W/POM152] | 2.67 ± 0.076 | 2.62 ± 0.064 | 2.37 ± 0.058 | 2.49 ± 0.042
ILMQQQMMARMAQTATQ [SRP54] | 2.34 ± 0.14 | 2.22 ± 0.1 | 2.08 ± 0.12 | 2.63 ± 0.1
IVKGNIIDEIKCIPKKG [POP4] | 1.79 ± 0.05 | 1.9 ± 0.05 | 2.29 ± 0.06 | 2.09 ± 0.045
DELVKLLLDNGFNMKKI [SRP68] | – | – | 2.98 ± 0.24 | 3.52 ± 0.13
KKASEISVSSRSDREYP [SRP14] | 3.19 ± 0.096 | 3.1 ± 0.12 | 2.99 ± 0.1 | 2.87 ± 0.082

Sequence | protein stability index (doa10∆) | protein stability index (pdr5∆) | protein stability index (san1∆) | protein stability index (ubr1∆)
QLILSDVDPEFYLKYVD [RET1] | 3.25 ± 0.23 | 2.95 ± 0.15 | 2.72 ± 0.12 | 2.92 ± 0.12
NGNITYSEEPREKVRKL [FAS2] | 2.99 ± 0.17 | 3.54 ± 0.18 | 3.3 ± 0.2 | 3.53 ± 0.18
LEGNDIHALAAKLLQEN [FAS1] | 2.76 ± 0.063 | 2.95 ± 0.065 | 2.77 ± 0.051 | 2.7 ± 0.059
FQAQQAQQAQQAQQAQQ [SNF2] | 2.86 ± 0.052 | 3 ± 0.046 | 2.85 ± 0.035 | 2.73 ± 0.035
QFTKVIDEPIKSIMDGI [FAS1] | 1.86 ± 0.047 | 2.27 ± 0.078 | 2.54 ± 0.16 | 1.49 ± 0.072
NTTTRVIPQVEVGNRKH [SNF5] | 2.21 ± 0.2 | 2.46 ± 0.095 | 2.35 ± 0.17 | 2.62 ± 0.094
IFNSNKAKIIPGNGKHA [SIR4] | 2.34 ± 0.11 | 3.13 ± 0.2 | 1.9 ± 0.17 | 2.2 ± 0.093
SKNCYLSEATESDLYKL [RPB2] | 3.02 ± 0.12 | 3.22 ± 0.14 | 2.9 ± 0.17 | 2.75 ± 0.093
IIPTTLEEQQQLEDESS [YML103C/NUP188] | 1.88 ± 0.081 | 1.66 ± 0.08 | 2.67 ± 0.081 | 2.86 ± 0.099
NAPTFNPKYDTSNASMN [YAR002W/NUP60] | 3.01 ± 0.046 | 3.08 ± 0.043 | 2.9 ± 0.036 | 3.17 ± 0.046
QIKEIKEVIELPVKHPE [RPT6] | 2.98 ± 0.074 | 3.13 ± 0.088 | 3.27 ± 0.078 | 3.2 ± 0.075
TVTNSKFRSSILRKSFD [RPN2] | 2.88 ± 0.1 | 3.07 ± 0.091 | 2.66 ± 0.094 | 3.31 ± 0.091
KELAELKVQKLSRPSLP [RPL35A] | 2.56 ± 0.045 | 2.92 ± 0.052 | 2.5 ± 0.061 | 2.74 ± 0.048
ANNNGSNLQRAQNVPMN [GAL11] | 3.09 ± 0.096 | 3.54 ± 0.12 | 3.17 ± 0.099 | 3.09 ± 0.085
TFIYGYCDKNFRENMSK [PRE3] | 2.12 ± 0.079 | 2.17 ± 0.066 | 2.21 ± 0.092 | 2.65 ± 0.053
GILLLDSLIQLANRSKE [YJL039C/NUP192] | 1.86 ± 0.064 | 1.74 ± 0.059 | 1.64 ± 0.099 | 1.97 ± 0.051
GVITVHNVFSKEQTIQL [RPN14] | 2.57 ± 0.14 | 2.63 ± 0.19 | 2.95 ± 0.079 | 3.12 ± 0.14
ALKNACNSIINKLGALK [RPB11] | 2.89 ± 0.29 | – | 2.95 ± 0.11 | 3.17 ± 0.15
NIRNNIESQNLDLIPHS [SRB4] | 2.62 ± 0.052 | 2.92 ± 0.046 | 2.62 ± 0.05 | 2.7 ± 0.029
PSTAIHTSPHQPSDVKP [SIR4] | 2.81 ± 0.052 | 2.95 ± 0.049 | 2.76 ± 0.046 | 2.36 ± 0.034
KNESATINEMMKHLGRS [FAS2] | 2.6 ± 0.082 | 2.87 ± 0.087 | 2.65 ± 0.062 | 2.81 ± 0.095
LELQVAKTFIDLESSSP [RPS7B] | 3.17 ± 0.071 | 3.2 ± 0.063 | 2.96 ± 0.11 | 3.11 ± 0.064
EPDRDENWIHVSCLSFM [LIN1] | 3.12 ± 0.051 | 3.07 ± 0.042 | 3.08 ± 0.042 | 3.11 ± 0.036
IQVAAFIYGMSAKDHPK [PRP8] | 3.24 ± 0.091 | 2.98 ± 0.12 | 3.19 ± 0.082 | 3.17 ± 0.12
GELRDYIEDFLLVIGGN [YJR042W/NUP85] | 2.23 ± 0.075 | 2.38 ± 0.065 | 2.65 ± 0.08 | 1.74 ± 0.037
KCKTRAQLTLKRCKHFE [RPL42A] | 2.65 ± 0.088 | 2.58 ± 0.085 | 2.85 ± 0.064 | 2.68 ± 0.061
